Changes are numbered by the printed parent chain. Names may count otherwise.

The subject of assay [1] is IL-11 signaling (STAT3 Reporter (Luciferase)-HEK293 cell line). In words: Cell-based STAT3 reporter (luciferase) HEK293 assay for inhibiting IL-11 signaling. Further details: species or system human. On the procedure:
Further testing of the lead mAbs was carried out using a cell-based reporter assay. IL-11 is reported to signal through the STAT3 and ERK pathways. Therefore, a STAT3 reporter cell line in which firefly luciferase gene expression is driven by STAT3 response elements located upstream of a minimal TATA promoter was selected to analyze mAb functional activity. In these cells, IL-11 can activate the endogenous STAT3 allowing it to bind to the STAT3 response elements, inducing transcription of the luciferase reporter gene and resulting in readily detectable luciferase expression. Antibodies to IL-11R which block IL-11 signaling should inhibit expression of IL-11 driven luciferase in these cells.
The STAT3 Reporter (Luciferase)—HEK293 cell line (BPS Bioscience, catalog #79800-P) was grown, passaged, and assayed as per manufacturer's protocols. Cells were added at 25,000 cells per well in a 96-well microtiter dish and incubated at 37° C. for 30-45 min. in 5% CO2 humidified air. Anti-IL-11R mAbs were added as a 3-fold dilution series in duplicate columns or rows, and plates were returned to the incubator for an additional 1 h at 37° C. after which 40 ng/mL IL-11 was added to each well to initiate the signal transduction cascade and luciferase production. Plates were incubated for 18-24 hours at 37° C. and luciferase was detected using a One-Step Luciferase Assay System (BPS Bioscience, cat. no. 60690-1) as per manufacturer's instructions.

The target in the next assay is T1, hIL-11Rα (Homo sapiens, UniProt Q14626).
T1 sequence (Q14626 23-422): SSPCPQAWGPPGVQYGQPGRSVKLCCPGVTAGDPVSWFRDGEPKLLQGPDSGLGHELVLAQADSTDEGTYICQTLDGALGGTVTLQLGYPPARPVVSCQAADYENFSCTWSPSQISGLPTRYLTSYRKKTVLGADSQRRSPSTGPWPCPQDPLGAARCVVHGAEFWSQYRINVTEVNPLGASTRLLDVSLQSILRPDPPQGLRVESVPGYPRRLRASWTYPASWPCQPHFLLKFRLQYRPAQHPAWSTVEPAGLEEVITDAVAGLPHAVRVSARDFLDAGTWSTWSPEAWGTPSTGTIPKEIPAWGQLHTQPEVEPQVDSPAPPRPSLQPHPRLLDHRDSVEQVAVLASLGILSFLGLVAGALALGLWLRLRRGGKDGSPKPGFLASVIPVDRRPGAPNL
In words: Kinetic binding analysis by biolayer interferometry (protein G biosensors, Octet RED96e). On the procedure:
Association was carried out in the presence of a 2-fold dilution series of hIL-11Rα and was allowed to proceed for 120 seconds; dissociation was measured for 300 to 1200 seconds.

B1: mAb14: anti-IL-11Rα antibody, human IgG4 (S228P), kappa; VH SEQ ID NO: 219, VL SEQ ID NO: 220 (antibody, V domains shown)
VH: EVQLLESGGGLVQPGGSLRLSCAASGFTFSWYSMTWVRQAPGKGLEWVSSIVPYGDLTQYAESVKGRFTISRDNSKNTLYLQMNSLRAEDTAVYYCAKGPGWGSFDLWGRGTLVTVSS
VL: DIQMTQSPSSLSASVGDRVTITCQASQDINNYLNWYQQKPGKAPKLLIYDASNLQTGVPSRFSGSGSGTDFTFTISSLQPEDIATYYCQQHESQSPTFGPGTKVDIK
modifications: IgG4 S228P kappa constant regions; mAb14 VH Chain; mAb14 VL Chain
Consider B1, for which the “potency at inhibiting IL-11 signaling relative to TS7 / 8E2 (in words)” value in assay [1] is recorded as “comparable in potency to TS7”. In the assay with hIL-11Rα, the ka came to 33700 M⁻¹ s⁻¹ and the kd is under 1e-07 s⁻¹.

B2: mAb8: anti-IL-11Rα antibody, human IgG4 (S228P), kappa; VH SEQ ID NO: 207, VL SEQ ID NO: 208 (antibody, V domains shown)
VH: B1 VH with W31S, S33A, T35S, E62D
VL: B1 VL
modifications: human IgG4 S228P and kappa constant regions; mAb8 VH Chain; mAb8 VL Chain
As to B2, the “potency at inhibiting IL-11 signaling relative to TS7 / 8E2 (in words)” value in assay [1] was “less potent than TS7”. In the assay with hIL-11Rα, this molecule had a ka of 65100 M⁻¹ s⁻¹ and a kd of under 1e-07 s⁻¹.

B3: mAb6: anti-IL-11Rα antibody, human IgG4 (S228P), kappa; VH SEQ ID NO: 203, VL SEQ ID NO: 204 (antibody, V domains shown)
VH: B1 VH with E62D
VL: B1 VL with S93F
modifications: human IgG4 S228P and kappa constant regions; mAb6 VH Chain; mAb6 VL Chain
As for B3, in assay [1], the “potency at inhibiting IL-11 signaling relative to TS7 / 8E2 (in words)” value was “variable”. For the same molecule, in the assay with hIL-11Rα, the ka stood at 800000 M⁻¹ s⁻¹ and the kd is under 1e-07 s⁻¹.

B4: mAb11: anti-IL-11Rα antibody, human IgG4 (S228P), kappa; VH SEQ ID NO: 213, VL SEQ ID NO: 214 (antibody, V domains shown)
VH: B1 VH with P53D, E62D
VL: B1 VL
modifications: IgG4 S228P kappa constant regions; mAb11 VH Chain; mAb11 VL Chain
Take B4: the “potency at inhibiting IL-11 signaling relative to TS7 / 8E2 (in words)” value in assay [1] is recorded as “less potent than TS7”. For the same molecule, in the assay with hIL-11Rα, the ka was determined as 32900 M⁻¹ s⁻¹ and the kd is 0.0181 s⁻¹.

B5: mAb7: anti-IL-11Rα antibody, human IgG4 (S228P), kappa; VH SEQ ID NO: 205, VL SEQ ID NO: 206 (antibody, V domains shown)
VH: B1 VH with W31N, S33A, T35S, E62D
VL: B1 VL
modifications: human IgG4 S228P and kappa constant regions; mAb7 VH Chain; mAb7 VL Chain
Consider B5, for which the “potency at inhibiting IL-11 signaling relative to TS7 / 8E2 (in words)” value in assay [1] is recorded as “less potent than TS7”. In addition, in the assay with hIL-11Rα, the ka came out at 63500 M⁻¹ s⁻¹ and the kd is under 1e-07 s⁻¹.

B6: mAb13: anti-IL-11Rα antibody, human IgG4 (S228P), kappa; VH SEQ ID NO: 217, VL SEQ ID NO: 218 (antibody, V domains shown)
VH: B1 VH with E62D, G99P, P100E, G101D, S104R
VL: B1 VL
modifications: IgG4 S228P kappa constant regions; mAb13 VH Chain; mAb13 VL Chain
B6: the “potency at inhibiting IL-11 signaling relative to TS7 / 8E2 (in words)” value in assay [1] was “more potent at inhibiting IL-11 signaling than either of TS7 or 8E2”. In the assay with hIL-11Rα, this molecule gave a ka of 66700 M⁻¹ s⁻¹ and a kd of under 1e-07 s⁻¹.

B7: mAb10: anti-IL-11Rα antibody, human IgG4 (S228P), kappa; VH SEQ ID NO: 211, VL SEQ ID NO: 212 (antibody, V domains shown)
VH: B1 VH with P53A, E62D
VL: B1 VL
modifications: IgG4 S228P kappa constant regions; mAb10 VH Chain; mAb10 VL Chain
B7: the “potency at inhibiting IL-11 signaling relative to TS7 / 8E2 (in words)” value in assay [1] is “less potent than TS7”. Moreover, in the assay with hIL-11Rα, the ka turned out to be 840000 M⁻¹ s⁻¹ and the kd was determined as 0.000416 s⁻¹.

B8: mAb9: anti-IL-11Rα antibody, human IgG4 (S228P), kappa; VH SEQ ID NO: 209, VL SEQ ID NO: 210 (antibody, V domains shown)
VH: B1 VH with S50G, E62D
VL: B1 VL
modifications: human IgG4 S228P and kappa constant regions; mAb9 VH Chain; mAb9 VL Chain
Regarding B8, the “potency at inhibiting IL-11 signaling relative to TS7 / 8E2 (in words)” value in assay [1] is given as “more potent at inhibiting IL-11 signaling than either of TS7 or 8E2”. In the assay with hIL-11Rα, the ka is 62200 M⁻¹ s⁻¹ and the kd is under 1e-07 s⁻¹.

B9: mAb12: anti-IL-11Rα antibody, human IgG4 (S228P), kappa; VH SEQ ID NO: 215, VL SEQ ID NO: 216 (antibody, V domains shown)
VH: B1 VH with E62D, G103Y
VL: B1 VL
modifications: IgG4 S228P kappa constant regions; mAb12 VH Chain; mAb12 VL Chain
Turning to B9, the “potency at inhibiting IL-11 signaling relative to TS7 / 8E2 (in words)” value in assay [1] is “comparable in potency to TS7”. Moreover, in the assay with hIL-11Rα, the ka amounted to 58100 M⁻¹ s⁻¹ and the kd is under 1e-07 s⁻¹.

B10: mAb15: anti-IL-11Rα antibody, human IgG4 (S228P), kappa; VH SEQ ID NO: 221, VL SEQ ID NO: 222 (antibody, V domains shown)
VH: B1 VH with E62D
VL: B1 VL with S93T, S95T
modifications: IgG4 S228P kappa constant regions; mAb15 VH Chain; mAb15 VL Chain
On to B10, for which, in assay [1], the “potency at inhibiting IL-11 signaling relative to TS7 / 8E2 (in words)” value was “comparable in potency to TS7”. Moreover, in the assay with hIL-11Rα, the ka came to 84000 M⁻¹ s⁻¹ and the kd was under 1e-07 s⁻¹.

Values taken from patent publication US12365738B2, “Method of treating an interleukin-11-associated or -mediated fibrotic disease or condition by administering an anti-interleukin-11 receptor subunit alpha (IL-11RA) antibody” (Lassen Therapeutics, Inc., priority 2021, dated 2025).
